Laboratory results reported in IntAct's records for PubMed 26221972.

B1: T-lymphocyte surface antigen Ly-9 (Homo sapiens), Q9HBG7 (parent)
chain: MVAPKSHTDDWAPGPFSSKPQRSQLQIFSSVLQTSLLFLLMGLRASGKDSAPTVVSGILGGSVTLPLNISVDTEIENVIWIGPKNALAFARPKENVTIMVKSYLGRLDITKWSYSLCISNLTLNDAGSYKAQINQRNFEVTTEEEFTLFVYEQLQEPQVTMKSVKVSENFSCNITLMCSVKGAEKSVLYSWTPREPHASESNGGSILTVSRTPCDPDLPYICTAQNPVSQRSSLPVHVGQFCTDPGASRGGTTGETVVGVLGEPVTLPLALPACRDTEKVVWLFNTSIISKEREEAATADPLIKSRDPYKNRVWVSSQDCSLKISQLKIEDAGPYHAYVCSEASSVTSMTHVTLLIYRRLRKPKITWSLRHSEDGICRISLTCSVEDGGNTVMYTWTPLQKEAVVSQGESHLNVSWRSSENHPNLTCTASNPVSRSSHQFLSENICSGPERNTKLWIGLFLMVCLLCVGIFSWCIWKRKGRCSVPAFCSSQAEAPADTPEPTAGHTLYSVLSQGYEKLDTPLRPARQQPTPTSDSSSDSNLTTEEDEDRPEVHKPISGRYEVFDQVTQEGAGHDPAPEGQADYDPVTPYVTEVESVVGENTMYAQVFNLQGKTPVSQKEESSATIYCSIRKPQVVPPPQQNDLEIPESPTYENFT
partner: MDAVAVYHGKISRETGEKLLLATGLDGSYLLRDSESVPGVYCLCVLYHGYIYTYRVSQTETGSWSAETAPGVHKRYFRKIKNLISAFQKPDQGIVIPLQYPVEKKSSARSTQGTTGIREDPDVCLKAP
B2: T-lymphocyte surface antigen Ly-9 (Homo sapiens), Q9HBG7 (parent)
chain: B1 chain
partner: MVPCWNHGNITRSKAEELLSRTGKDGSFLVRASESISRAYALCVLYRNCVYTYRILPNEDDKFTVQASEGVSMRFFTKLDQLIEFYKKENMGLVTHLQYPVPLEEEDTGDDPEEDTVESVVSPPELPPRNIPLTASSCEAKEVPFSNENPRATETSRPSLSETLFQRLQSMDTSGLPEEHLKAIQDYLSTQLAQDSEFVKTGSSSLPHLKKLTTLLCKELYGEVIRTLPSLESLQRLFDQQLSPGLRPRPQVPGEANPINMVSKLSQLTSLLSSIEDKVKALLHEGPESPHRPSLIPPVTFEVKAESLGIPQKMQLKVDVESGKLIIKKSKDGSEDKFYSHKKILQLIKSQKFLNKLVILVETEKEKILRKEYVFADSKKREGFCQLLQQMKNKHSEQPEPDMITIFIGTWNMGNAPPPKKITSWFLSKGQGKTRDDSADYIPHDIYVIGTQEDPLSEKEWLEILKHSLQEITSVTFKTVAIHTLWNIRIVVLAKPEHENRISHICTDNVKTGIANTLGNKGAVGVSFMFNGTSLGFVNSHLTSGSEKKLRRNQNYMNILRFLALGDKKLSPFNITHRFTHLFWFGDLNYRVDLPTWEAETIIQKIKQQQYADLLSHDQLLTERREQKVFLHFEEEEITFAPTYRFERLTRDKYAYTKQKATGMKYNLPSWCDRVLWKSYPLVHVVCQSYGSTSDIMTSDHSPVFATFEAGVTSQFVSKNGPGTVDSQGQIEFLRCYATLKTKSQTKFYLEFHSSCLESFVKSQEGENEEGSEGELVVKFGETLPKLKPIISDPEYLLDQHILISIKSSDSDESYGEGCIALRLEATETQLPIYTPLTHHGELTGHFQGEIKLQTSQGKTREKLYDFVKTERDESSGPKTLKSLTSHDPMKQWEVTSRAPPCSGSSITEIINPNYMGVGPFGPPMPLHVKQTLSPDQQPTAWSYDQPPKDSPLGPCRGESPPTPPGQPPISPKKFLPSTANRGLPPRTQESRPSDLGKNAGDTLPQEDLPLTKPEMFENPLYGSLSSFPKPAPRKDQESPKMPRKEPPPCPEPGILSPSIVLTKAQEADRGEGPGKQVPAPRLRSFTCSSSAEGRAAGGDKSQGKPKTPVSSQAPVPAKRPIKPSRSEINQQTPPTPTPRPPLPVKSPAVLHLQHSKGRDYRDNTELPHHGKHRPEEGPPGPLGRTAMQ

Variants of: B1
Conditions: with sh21a_human SH2D1A

Variant | effect of a mutation on the interaction
M602V | decreasing interaction

Variants of: B2
Conditions: with ship1_human INPP5D

Variant | effect of a mutation on the interaction
M602V | decreasing interaction
